Assay results reported in the supplement of paper PMC10126150.
± gives the standard deviation of the averaged measurements.

system: ATP; experiment: switch fluorescence ratio, 500 uM ATP over buffer (Cy3 cluster intensity, sum of 5 cycles each) (fold (ratio)); higher = stronger signal-on switching upon ATP binding; sequences stand for … in TCGTCGGCAGCGTCAGATGTGTATAAGAGACAGTTTTTTTTTTTTTTTTTTTTTTTTT…TC; conditions: aptamer strand: ATP DNA aptamer (quencher-CACCTGGGGGAGTATTGCGGAGGAAGG + anchor), 100 nM annealed; ATP concentration: 500 uM
How it was run: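 Switching-strand clusters labelled with Cy3 on a modified Illumina MiSeq flow-cell were annealed to 100 nM quencher-labelled ATP aptamer, imaged in selection buffer, and re-imaged after 15 min with 500 uM ATP at 22 °C. This was done over five cycles with NaOH stripping and re-annealing in between. The fluorescence ratio is summed target-cycle over summed buffer-cycle Cy3 intensity per cluster, averaged per switch-domain sequence, excluding clusters outside 100-1000 RFU.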
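Also: ATP exposure 15 min at 22 °C before imaging.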

| Sequence | switch fluorescence ratio |
| --- | --- |
| AGGGGAGGCA | 1.02 ± 0.089 |
| CAGTAACTGT | 1.02 ± 0.027 |
| TATTCTGGTT | 1.02 ± 0.05 |
| CATTATAGAT | 0.997 ± 0.021 |
| ATATGGAGTT | 0.943 ± 0.022 |
| GAGTTTTTGT | 1.01 ± 0.017 |
| TTGAACGGGA | 1.01 ± 0.044 |
| TAGGGGGTAT | 1.02 ± 0.019 |
| GATCTCAGTT | 1.02 ± 0.036 |
| ACGACGAAAC | 3.35 ± 1 |
| GTCGAAGAG | 0.987 ± 0.016 |
| TTGATTCATA | 0.98126 ± 0.00011 |
| TATGTGACTT | 1.03 ± 0.0074 |
| GATGTACCTC | 1.05 ± 0.0046 |
| GGAAGGCCTA | 0.954 ± 0.017 |
| TAAATGGTTC | 0.969 ± 0.027 |
| CAAAATTGCA | 1.02 ± 0.016 |
| TTTTCGTGGT | 0.984 ± 0.017 |
| GTGGATAGTC | 0.992 ± 0.066 |
| TTAAAGGGA | 1.01 ± 0.022 |
| CGGTCGGTGT | 0.982 ± 0.022 |
| CGTGGGCTGT | 0.9817 ± 0.0074 |
| AGTGGTGGGA | 1.01 ± 0.033 |
| GCAGGTTGGC | 0.992 ± 0.029 |
| TGATTTTGGC | 1.01 ± 0.017 |

| Sequence | switch fluorescence ratio |
| --- | --- |
| GATGTCTGCT | 1.019 ± 0.0098 |
| CAGACAGGGG | 1.05 ± 0.02 |
| AAAGGCGGTG | 0.976 ± 0.023 |
| TTGAGTGGTC | 0.997 ± 0.016 |
| TGCATGGGCT | 1.05 ± 0.12 |
| GGGGCGTTAT | 0.969 ± 0.048 |
| GCTTATCTAA | 0.997 ± 0.016 |
| ATGTCGTCTC | 1.003 ± 0.0091 |
| GGTTGTCTGC | 0.968 ± 0.055 |
| AGAGATGAGG | 0.974 ± 0.042 |
| TTAGGAGAAT | 0.999 ± 0.015 |
| AGGATCATGG | 1.01 ± 0.021 |
| TTTGCACTTT | 1 ± 0.046 |
| TTGCGCGGAC | 2.34 ± 1.5 |
| ACAGGGGGGA | 1.05 ± 0.046 |
| ACTAGGGGTT | 1.23 ± 0.34 |
| TATTGTGTTT | 0.9781 ± 0.0039 |
| TAAGGGAGTG | 0.976 ± 0.031 |
| TTGGGATAAC | 1.04 ± 0.058 |
| GGAGTCATAC | 1.63 ± 0.035 |
| GAGGGGGCCA | 1.02 ± 0.027 |
| TTCGGAAATG | 1.03 ± 0.025 |
| GGGCATTTTT | 0.9824 ± 0.0041 |
| GAGCAACTGA | 1.022 ± 0.0018 |
| CGGGGTGAGG | 0.997 ± 0.014 |

| Sequence | switch fluorescence ratio |
| --- | --- |
| GGGATAAAGG | 0.993 ± 0.035 |
| CTTTATTGGA | 0.971 ± 0.013 |
| CTTTGTATGT | 0.982 ± 0.029 |
| GAGCATGAAA | 0.974 ± 0.04 |
| CGTGGGTAAG | 1.02 ± 0.039 |
| TGTAGGAGAC | 1.24 ± 0.33 |
| TGACGGGGGC | 1.01 ± 0.014 |
| GATATTTTAG | 1.009 ± 0.0087 |
| TATAAGTAGG | 0.968 ± 0.028 |
| AAGTTCGGG | 1.035 ± 0.0057 |
| ACGATAGGTA | 1.06 ± 0.026 |
| ACGCCGGCTT | 1.272 ± 0.0019 |
| CATGGGAAGT | 1.01 ± 0.035 |
| TGCGATTAAG | 1 ± 0.047 |
| ATTCCGGGGA | 1.23 ± 0.29 |
| CGTTACGGGA | 1.02 ± 0.057 |
| GATTGGTAGG | 0.981 ± 0.017 |
| AATTAACTTT | 0.985 ± 0.023 |
| CGCTTTGACT | 1.08 ± 0.021 |
| GCGGCGAGGA | 1.02 ± 0.038 |
| CTTTTAGGGA | 0.989 ± 0.028 |
| ACTTTTTATA | 0.968 ± 0.082 |
| GGTTTCTTGA | 1.02 ± 0.021 |
| GGGGCCCGGG | 1.04 ± 0.036 |
| TCGATGGCTT | 1.05 ± 0.019 |

| Sequence | switch fluorescence ratio |
| --- | --- |
| TTAAGGCACG | 0.999 ± 0.017 |
| ATCGCGTTGG | 0.983 ± 0.027 |
| CCCCATTTTT | 1.06 ± 0.067 |
| TTCACAGGAG | 1.12 ± 0.05 |
| TTCGCGGGTT | 0.97 ± 0.01 |
| TGCCGGGGAC | 1.04 ± 0.034 |
| TCTAACGCTG | 1.13 ± 0.056 |
| GAGTAAATTG | 0.987 ± 0.019 |
| CCATTTAGTT | 1.09 ± 0.12 |
| GTTTCTTCGA | 0.973 ± 0.013 |
| CGGGGGTTCG | 1.05 ± 0.057 |
| CTTATTATGG | 0.975 ± 0.021 |
| GGAGCGGGGT | 1.03 ± 0.019 |
| CTCGCATGGT | 1.37 ± 0.024 |
| AGGGATAATT | 0.975 ± 0.027 |
| ACGCCGTATG | 1 ± 0.011 |
| GTAGTATTGG | 0.982 ± 0.028 |
| CGTGGGCATT | 1.01 ± 0.034 |
| TGGATCATAA | 0.973 ± 0.068 |
| TGGTTCACGT | 1 ± 0.024 |
| GGATATTGCT | 0.949 ± 0.043 |
| AGCATGTATC | 1.07 ± 0.012 |
| ACGAGTGGCG | 0.933 ± 0.021 |
| GGTTCAAGGG | 0.984 ± 0.02 |
| AACTATTGAA | 1.003 ± 0.0077 |
